The values below come from patent US20230083670A1.

pEC50: −log10 of the molar value.

The target in assay [1] is PD-L1 on CHO-PD-L1 cells (human) (UniProt Q9NZQ7). Briefly: flow cytometry cell binding; CHO-PD-L1 cells. A general note: A flow cytometer gives signals particle by particle.
For assay [2], the target named is CD47 on Jurkat cells (UniProt Q08722). As to the kind of experiment: flow cytometry cell binding; Jurkat cells.

Broadly, the pEC50 is the EC50 on a negative log10 scale, so that one unit is a factor of ten. Low values mean a large EC50, high ones a small EC50.

Chain of PD-L1 on CHO-PD-L1 cells (human) (Q9NZQ7 19-290): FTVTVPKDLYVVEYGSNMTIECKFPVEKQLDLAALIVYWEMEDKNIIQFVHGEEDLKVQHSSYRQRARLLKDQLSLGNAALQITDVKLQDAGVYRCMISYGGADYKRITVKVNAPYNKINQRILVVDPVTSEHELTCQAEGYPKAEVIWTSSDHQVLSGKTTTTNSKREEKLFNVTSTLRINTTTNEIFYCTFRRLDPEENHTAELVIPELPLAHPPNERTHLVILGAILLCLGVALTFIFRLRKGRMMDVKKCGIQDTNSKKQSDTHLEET

For the substance Atezolizumab, the pEC50 in assay [1] was 10.57.
In the case of IMM2505, the pEC50 in assay [2] was 9.04; in assay [1] it was 10.33.
